Positions count from the first letter of the chain named.
Columns and labels:
[1] = biological target: T1, 562(P4-P3′)336 factor VIII mutant (procofactor)
T1 chain 1: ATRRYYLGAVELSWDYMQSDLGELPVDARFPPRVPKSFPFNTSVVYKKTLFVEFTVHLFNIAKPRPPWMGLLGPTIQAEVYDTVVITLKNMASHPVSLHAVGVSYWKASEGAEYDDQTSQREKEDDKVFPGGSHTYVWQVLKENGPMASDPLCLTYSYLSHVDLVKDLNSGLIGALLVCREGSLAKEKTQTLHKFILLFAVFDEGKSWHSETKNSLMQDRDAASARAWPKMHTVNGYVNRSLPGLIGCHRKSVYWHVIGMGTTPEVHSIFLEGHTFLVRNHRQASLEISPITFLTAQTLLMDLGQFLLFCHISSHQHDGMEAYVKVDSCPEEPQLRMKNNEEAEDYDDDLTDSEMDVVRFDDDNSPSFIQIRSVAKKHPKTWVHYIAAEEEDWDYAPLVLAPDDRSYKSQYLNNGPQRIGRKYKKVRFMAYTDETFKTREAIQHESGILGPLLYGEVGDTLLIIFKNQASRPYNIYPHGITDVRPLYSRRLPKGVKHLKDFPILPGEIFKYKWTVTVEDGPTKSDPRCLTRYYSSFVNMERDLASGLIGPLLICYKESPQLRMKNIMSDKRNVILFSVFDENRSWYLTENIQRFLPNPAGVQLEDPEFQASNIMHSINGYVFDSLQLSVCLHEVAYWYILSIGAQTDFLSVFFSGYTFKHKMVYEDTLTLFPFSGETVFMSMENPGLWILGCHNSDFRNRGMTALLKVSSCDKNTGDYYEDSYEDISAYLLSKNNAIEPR
T1 chain 2: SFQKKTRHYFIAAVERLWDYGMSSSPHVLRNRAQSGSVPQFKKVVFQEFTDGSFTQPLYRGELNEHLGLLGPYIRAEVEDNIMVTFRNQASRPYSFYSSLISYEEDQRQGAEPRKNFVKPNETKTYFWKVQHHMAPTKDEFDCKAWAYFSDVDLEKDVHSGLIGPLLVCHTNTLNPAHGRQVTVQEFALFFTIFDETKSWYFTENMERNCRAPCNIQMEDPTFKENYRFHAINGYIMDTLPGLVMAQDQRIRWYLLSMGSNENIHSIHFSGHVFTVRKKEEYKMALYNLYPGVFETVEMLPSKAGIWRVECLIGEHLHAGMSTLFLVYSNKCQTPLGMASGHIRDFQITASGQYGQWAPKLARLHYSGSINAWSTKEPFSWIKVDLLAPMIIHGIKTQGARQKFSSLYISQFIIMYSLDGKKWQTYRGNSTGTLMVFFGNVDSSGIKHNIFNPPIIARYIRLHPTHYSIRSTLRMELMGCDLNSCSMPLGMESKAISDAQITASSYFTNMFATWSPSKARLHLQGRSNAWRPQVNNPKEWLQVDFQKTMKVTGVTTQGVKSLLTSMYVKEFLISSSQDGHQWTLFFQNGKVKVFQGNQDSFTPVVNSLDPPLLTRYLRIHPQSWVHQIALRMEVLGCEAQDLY

[2] = biological target: T2, 562(P4-P2)336 factor VIII mutant (procofactor)
T2 chain 1: T1 chain 1 with M563G, K564N, N565Q
T2 chain 2: T1 chain 2

[3] = biological target: T3, WT factor VIII (B-domainless recombinant human factor VIII procofactor)
T3 chain 1: T1 chain 1 with P559V, Q560D, L561Q, M563G, K564N, N565Q
T3 chain 2: T1 chain 2

B1: human activated protein C (protein)
chain 1: ANSFLEELRHSSLERECIEEICDFEEAKEIFQNVDDTLAFWSKHVDGDQCLVLPLEHPCASLCCGHGTCIDGIGSFSCDCRSGWEGRFCQREVSFLNCSLDNGGCTHYCLEEVGWRRCSCAPGYKLGDDLLQCHPAVKFPCGRPWKRMEKKRSHL
chain 2: LIDGKMTRRGDSPWQVVLLDSKKKLACGAVLIHPSWVLTAAHCMDESKKLLVRLGEYDLRRWEKWELDLDIKEVFVHPNYSKSTTDNDIALLHLAQPATLSQTIVPICLPDSGLAERELNQAGQETLVTGWGYHSSREKEAKRNRTFVLNFIKIPVVPHNECSEVMSNMVSENMLCAGILGDRQDACEGDSGGPMVASFHGTWFLVGLVSWGEGCGLLHNYGVYTKVSRYLDWIHGHIRDKEAPQKSWAP
For B1, the A2 Cleavage (nM A2/min/nM APC) (nM A2/min/nM APC) [1] was 2.7, the A2 Cleavage (nM A2/min/nM APC) (nM A2/min/nM APC) [2] was 0.6 and the A2 Cleavage (nM A2/min/nM APC) (nM A2/min/nM APC) [3] was 0.1.

— US20090118185A1 (UNIVERSITY OF ROCHESTER, published 2009)
